Results reported in patent publication US20260224761A1, “DUAL LABELLED COMPOUNDS TARGETING THE PROSTATE SPECIFIC MEMBRANE ANTIGEN” (priority 2023, published 2026).
Where two headings read alike, the source gives them in different places.

Tests used:
[1] = Lipophilicity, modified shake-flask method; type: physicochemical
Procedure: The lipophilicity of [^99mTc]PSMA-HSG, [^99mTc]EuK(SO3)Cy5-mas3 and [^99mTc]EuK(SO3)Cy5(SO3)-mas3 was determined via a modified shake-flask method as described ([…]. et al., Eur. J. Nuc. Mol. Med. Imaging Res., 2014, 4, 63).

[2] = Plasma protein binding; type: in vitro ADME; conditions: plasma
Procedure: (§1) Quantum yield, molar extinction coefficient and serum protein binding experiments were performed according to previously published procedures (Hensbergen A. W. et al., Dyes and Pigments, 2018, 152, 19-28).

[3] = Biodistribution in LNCaP xenograft bearing NSG mice; type: in vivo; conditions: NSG, mouse, in vivo, iv, 0.1 nmol/animal, total radioactivity, Biodistribution: LNCaP tumor
Procedure: The biodistribution of [^99mTc]PSMA-HSG, [^99mTc]EuK(SO3)Cy5-mas3 and [^99mTc]EuK(SO3)Cy5(SO3)-mas3 was investigated in LNCaP xenograft bearing NSG mice. […] (0.1 nmol-cohort), respectively.
To assess the influence of the different ligand designs of [^99mTc]PSMA-HSG and [^99mTc]mas3-(SO3)Cy5(SO3)—EuK on in vivo PSMA-targeting and general pharmacokinetics, their in vivo biodistribution was investigated in LNCaP xenograft bearing NSG mice in two different experimental settings: • A) at 2 h p.i. using a ligand dose of 1 nmol/animal. These conditions were chosen to allow comparability of the data from this study (Table 3) with previous results in a different tumor model (Hensbergen, A. W. et al., J. Nucl. Med., 2020, 61, 234-241). Here, [^99mTc]mas3-Cy5(SO3)—EuK was additionally included as an internal reference to establish the “missing link” between studies. • B) at 6 h p.i. using a ligand dose of 0.1 nmol/animal (Table 4). The latter settings were adapted to a timeline and dosing with more similarity to the clinical situation (surgery at a later time point, microdosing principle). Of note, however, a ligand amount of 0.1 nmol/mouse (extrapolation: 280 nmol/70 kg patient) still exceeds the potentially applicable clinical dose (48 nmol/70 kg patient for a compound with a molecular weight of −2100 g/mol). Nevertheless, it represents a dose level at which significant competition effects between unlabeled precursor and radioligand for PSMA binding sites in tumor tissue are not probable (Eder A. C. et al., J. Nucl. Med., 2021, 62, 1461-1467; Kalidindi T. M. et al., Eur. J. Nucl. Med. Mol. Imaging, 2021, 48, 2642-2651).

[4] = system: LNCaP xenograft bearing male NSG mice; experiment: Small animal SPECT/CT blocking study with 2-PMPA co-injection; type: in vivo; conditions: 2-4 h p.i.; 1 nmol; co-injection of 1 μmol 2-PMPA
Procedure: FIG. 1: Small animal SPECT/CT study in LNCaP xenograft bearing male NSG mice at 2-4 h p.i. […] White arrows indicate the position of the LNCaP xenograft. SPECT/CT images were acquired using an Albira Si PET/SPECT/CT (Bruker Biospin Corporation, Woodbridge, CT, USA) instrument. […] For reconstruction, an ordered subset expectation-maximization algorithm (OSEM) with two iterations was used, and scatter correction was applied. For CT, the following parameters were used: 400 μA intensity and 35 kV voltage, 600 projections. Images were reconstructed using a filtered back-projection (FBP) algorithm with de-ringing correction. Fused representative SPECT/CT images were acquired using the PMOD software (PMOD technologies, version 3.709, Zurich, Switzerland).

[5] = Photophysical characterization (molar extinction coefficient, quantum yield, brightness) in human serum albumin solution; type: physicochemical; conditions: for Brightness (HSA): multiplication of molar extinction coefficient and quantum yield
Procedure: as §1
Table 1 summarizes the photophysical properties of [^99mTc]PSMA-HSG, [^99mTc]mas3-Cy5(SO3)—EuK and [^99mTc]mas3-(SO3)Cy5(SO3)—EuK and of the different sulfonated Cy5-dyes used for their preparation. […] Because of this latter effect we analyzed the brightness (as multiplication of the molar extinction coefficient and the quantum yield) in humans serum albumin for all three hybrid PSMA agents included in this study (see Table 1). While we indeed see that increasing of the number of sulfonates on the cyanine dye has a positive effect on the brightness all remain within the same order of magnitude.
Because of this latter effect, we analyzed the brightness (as multiplication of the molar extinction coefficient and the quantum yield) in human serum albumin solution for all three hybrid PSMA agents included in this study (see Table 1). While we indeed see that increasing of the number of sulfonates on the cyanine dye has a positive effect on the brightness, all remain within the same order of magnitude.

[6] = system: PC3-Pip xenografts in NSG mice; experiment: In vivo and ex vivo fluorescence imaging of PC3-Pip xenografts in NSG mice; conditions: for detectable fluorescence signal: 6 h p.i., 0.1 nmol ligand
Procedure: FIG. 3: In vivo (A) and ex vivo (B) fluorescence imaging of PC3-Pip xenografts in NSG mice using PSMA-HSG (upper two rows), the reference Ac-mas3-Cy5(SO3)—EuK (middle two rows) and Ac-mas3-(SO3)Cy5(SO3)—EuK (lower two rows). Conditions were 2 h p.i. using a peptide dose of 1 nmol/mouse and 6 h p.i. using a peptide dose of 0.1 nmol/mouse, respectively (n=1 per condition). In vivo and ex vivo fluorescence imaging of intact tumors was performed using a clinical-grade fluorescence KARL STORZ Endoscope; fluorescence confocal imaging of 2 mm tumor slices (right) was performed using a Leica SP8 WLL microscope.
In vivo fluorescence imaging of PC3-Pip xenografts in NSG mice (2 h p.i. at a ligand dose of 1 nmol and 6 h p.i. at a ligand dose of 0.1 nmol, respectively; n=1 per compound and condition) was performed using a clinical-grade fluorescence laparoscopy set-up (KARL STORZ Endoskope GMBh & Co. KG). Cy5-based tumor imaging was performed using D-light P system and a prototype modified IMAGE 1 S light source with integrated Cy5 filter (both KARL STORZ Endoskope GMBh & Co. KG). Images were recorded using integrated KARL STORZ software and image processing was performed using in-house developed MATLAB software that provided a signal intensity-based representation of the signal-to-background ratio (SBR; Azargoshasb S. et al., Mol. Imaging Biol., 2022, https://doi.org/10.1007/s11307-022-01736-y; de Barros H. A. et al., Eur. Urol., 2022, 82, 97-105).
Fluorescence Confocal Imaging of Excised Tumor Specimens After in vivo imaging tumor specimens (N=1 per tracer) were excised and cut into 2 mm slices. Prior to imaging, slices were placed on a 35-mm culture dish containing a glass insert (MatTek Co.). Fluorescence confocal imaging was then performed using a Leica SP8 WLL microscope (Leica Microsystems). For assessment of tracer uptake Cy5 settings were used; λex=633 nm, λem=650-700 nm. Images were processed using accompanying LASX software (Leica Application Software Suite 4.8).

[7] = target: T1, PSMA (Homo sapiens, UniProt Q04609); conditions: LNCaP cells; reference compounds, assayed under identical conditions (literature cited in table title); # = free mas3-chelator; cited from earlier work
T1 construct: using PSMA-expressing LNCaP cells and ([^125I]I-BA)EuK as standard radioligand; endogenous in cells; host or cells: LNCaP cells
T1 sequence (Q04609 whole entry): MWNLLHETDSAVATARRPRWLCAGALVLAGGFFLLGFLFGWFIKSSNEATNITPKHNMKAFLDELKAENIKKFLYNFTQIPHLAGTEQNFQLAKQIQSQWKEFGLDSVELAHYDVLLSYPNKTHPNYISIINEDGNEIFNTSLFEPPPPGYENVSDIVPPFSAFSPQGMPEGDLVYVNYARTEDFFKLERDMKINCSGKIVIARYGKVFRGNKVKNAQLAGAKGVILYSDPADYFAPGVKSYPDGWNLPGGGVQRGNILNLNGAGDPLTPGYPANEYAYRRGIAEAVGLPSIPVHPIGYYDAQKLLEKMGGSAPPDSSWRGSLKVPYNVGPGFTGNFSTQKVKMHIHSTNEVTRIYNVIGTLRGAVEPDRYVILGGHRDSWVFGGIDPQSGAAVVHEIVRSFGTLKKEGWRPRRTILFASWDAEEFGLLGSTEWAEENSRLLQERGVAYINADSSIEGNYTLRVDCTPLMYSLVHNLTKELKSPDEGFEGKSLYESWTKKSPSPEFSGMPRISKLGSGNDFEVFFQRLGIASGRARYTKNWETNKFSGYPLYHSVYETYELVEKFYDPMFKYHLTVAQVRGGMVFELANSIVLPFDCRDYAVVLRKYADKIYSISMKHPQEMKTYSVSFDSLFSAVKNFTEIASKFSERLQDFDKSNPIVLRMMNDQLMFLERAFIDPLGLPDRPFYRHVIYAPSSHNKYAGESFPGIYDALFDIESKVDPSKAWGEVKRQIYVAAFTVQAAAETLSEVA

[8] = target: T1, PSMA; experiment: Competitive binding experiments (IC50) using PSMA-expressing LNCaP cells and ([125I]I-BA)EuK as standard radioligand
Procedure: Competitive binding experiments (IC50) were carried out in accordance with an established protocol ([…]. et al., Eur. J. Nuc. Mol. Med. Imaging Res., 2014, 4, 63) using PSMA-expressing LNCaP cells and ([^125I]I-BA)EuK as standard radioligand.

[9] = system: plasma proteins; experiment: Plasma protein binding; type: in vitro ADME
Procedure: as §1

[10] = tendency to associate with plasma proteins

Row | SMILES | logP [1] | fraction unbound ([2]; Plasma Protein Binding (%)) | fraction unbound [2, 10] | tissue uptake at 6 h [3] | specificity of tracer uptake in tumor and PSMA-positive tissues [4] | Quantum yield (HSA) [5] | Brightness (HSA) [5] | Molar extinction coefficient free dye (HSA) [5] | detectable fluorescence signal [6] | IC50 [7] | brightness compared to PSMA-HSG ([5]; text b242) | reduction in affinity compared to the mono-sulfonated analog Ac-mas3-Cy5(SO3)-EuK [8] | IC50 ([8]; LNCaP cells, free mas3-chelator, novel compounds) | tendency to associate with plasma proteins [9] | fluorescence signal in the xenografts ([6]; 2 h p.i., ligand dose 1 nmol, in vivo and ex vivo)
1 | C[N+]1=C(/C=C/C=C/C=C2/N(CCCCCC(=O)NCCCC[C@@H](NC(=O)[C@@H](CO)NC(=O)[C@@H](CO)NC(=O)[C@@H](CO)NC(=O)CS)C(=O)N[C@H](Cc3ccc(O)cc3)C(=O)N[C@H](Cc3ccc4ccccc4c3)C(=O)N[C@H](CCCCNC(=O)CCCCCCC(=O)NCCCC[C@H](NC(=O)N[C@@H](CCC(=O)O)C(=O)O)C(=O)O)C(=O)O)c3ccc(S(=O)(=O)O)cc3C2(C)C)C(C)(C)c2cc(S(=O)(=O)[O-])ccc21 [[^99mTc]PSMA-HSG, metal not drawn] | -2.94 | 0.007 | 0.006 | 17.1 ± 2.9 %ID/g | PSMA-specific |  |  |  |  |  |  |  |  |  | 
2 | CC(=O)SCC(=O)N[C@H](CO)C(=O)N[C@H](CO)C(=O)N[C@H](CO)C(=O)NCCCCC(=O)NCCCCN1\C(=C/C=C/C=C/C2=[N+](CCCCCC(=O)NCCCC[C@H](NC(=O)N[C@@H](CCC(=O)O)C(=O)O)C(=O)O)c3ccc(S(=O)(=O)[O-])cc3C2(C)C)C(C)(C)c2ccccc21 [Ac-mas3-Cy5(SO3)-EuK] |  |  | 0.028 |  |  | 21% | 33800 L/mol/cm | 161000 L/mol/cm | weak | 17.8 ± 2.9 nM |  |  |  |  | 
3 | CC(=O)SCC(=O)N[C@H](CO)C(=O)N[C@H](CO)C(=O)N[C@H](CO)C(=O)NCCCCCC(=O)NCCCCN1/C(=C/C=C/C=C/C2=[N+](CCCCCC(=O)NCCCC[C@H](NC(=O)N[C@@H](CCC(=O)O)C(=O)O)C(=O)O)c3ccc(S(=O)(=O)O)cc3C2(C)C)C(C)(C)c2cc(S(=O)(=O)[O-])ccc21 [Ac-mas3-(SO3)Cy5(SO3)-EuK] |  |  |  |  |  | 16% | 38900 L/mol/cm | 243000 L/mol/cm | virtually not detectable |  | fivefold lower brightness | almost eight-fold reduction | 131 ± 29 nM | 77.9% | weakest signal
